Target: T1, EZH1 of the truncated minimal complex used for crystallization (human, UniProt Q92800 1-187; Q92800 230-491; Q92800 497-747, residues 353–413 of EZH1 were deleted)
T1 construct: human EZH1, residues 1-187; linker that replaces residues 188–229 of EZH1; human EZH1, residues 230-491 with 353–413 deleted; linker that replaces residues 492–496 of EZH1; human EZH1, residues 497-747; In the crystal joined on one chain with m3 through an LVPRGS linker; source: S. cerevisiae CB010, purified (IgG-sepharose, TEV cleavage, Superdex 200); not shown: His6, N-terminal, …
Assay: crystal structure; truncated minimal EZH1–EED–SUZ12(VEFS) complex at 10 mg/ml pre-incubated with 0.5 mM H3K27M peptide, 0.5 mM H3K27me3 peptide and 1 mM SAM; 10% PEG3350, 100 mM ammonium sulfate, 50 mM HEPES pH 6.8; 3.0 Å
Conditions: both partners purified

T1 sequence (Q92800 other isoform, or with tags, fused parts or gaps with the stated changes): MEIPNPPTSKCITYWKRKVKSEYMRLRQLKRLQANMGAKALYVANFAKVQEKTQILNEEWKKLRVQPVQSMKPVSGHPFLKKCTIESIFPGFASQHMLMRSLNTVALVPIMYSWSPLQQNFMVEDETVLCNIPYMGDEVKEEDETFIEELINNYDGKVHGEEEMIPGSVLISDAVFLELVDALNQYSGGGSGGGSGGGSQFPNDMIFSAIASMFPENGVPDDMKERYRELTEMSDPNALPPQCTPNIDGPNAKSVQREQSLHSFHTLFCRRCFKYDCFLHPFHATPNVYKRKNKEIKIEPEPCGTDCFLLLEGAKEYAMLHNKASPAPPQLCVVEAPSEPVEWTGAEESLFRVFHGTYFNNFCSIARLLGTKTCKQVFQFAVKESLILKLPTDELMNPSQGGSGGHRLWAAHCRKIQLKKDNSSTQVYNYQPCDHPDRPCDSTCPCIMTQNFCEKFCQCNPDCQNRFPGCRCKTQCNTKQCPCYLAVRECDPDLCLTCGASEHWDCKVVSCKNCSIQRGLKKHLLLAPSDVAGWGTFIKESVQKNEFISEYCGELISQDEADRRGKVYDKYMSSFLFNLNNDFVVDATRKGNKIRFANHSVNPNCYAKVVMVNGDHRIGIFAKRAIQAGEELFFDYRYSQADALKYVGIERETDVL

B1: EED of the truncated minimal complex used for crystallization (domain or fragment)
chain: not shown
notes: human EED, residues 1–77 replaced by a StrepII tag; source: S. cerevisiae CB010, co-expressed, purified with the complex (IgG-sepharose, TEV cleavage, Superdex 200); not shown: StrepII, N-terminal, kept
B1: binds.

Source: publication PMC9645763, “CK2-mediated phosphorylation of SUZ12 promotes PRC2 function by stabilizing enzyme active site” (Nature Communications, 2022)
